Measurements: patent CN116693676A
Substitutions are numbered along the chain they refer to.

B1: Anti-MP-22A9mut1 (antibody, mouse IgG1, kappa, V domains shown)
VH: QAYLQQSGAELVRSGASVKMSCKASGYTFTTYNMHWVKQTPGQGLEWIGYVHPGYGITYYSQKFKGKATLTADTSSSTAYMILSSLTSEDSAVYFCTRSYYGYSYWFFDVWGAGTTVTVSS
VL: NIVMTQSPKSVSMSVGERVTLNCKASENVGSYVAWYQQKPDRSPKLLIHGASNRYTGVPDRFTGSGSTTDFTLTISSVQAEDLADYHCGQTYNYPYTFGGGTKLEIKR
B2: Anti-MP-22A9mut2 (antibody, mouse IgG1, kappa, V domains shown)
VH: B1 VH with I82L
VL: B1 VL
B3: Anti-MP-22A9mut6 (antibody, mouse IgG1, kappa, V domains shown)
VH: B1 VH with I82L, L86I
VL: B1 VL with I75L
B4: Anti-MP-22A9mut4 (antibody, mouse IgG1, kappa, V domains shown)
VH: B1 VH with I82L, L86I
VL: B1 VL
B5: Anti-MP-22A9mut5 (antibody, mouse IgG1, kappa, V domains shown)
VH: B1 VH with I82L, L86I
VL: B1 VL with L73I
B6: Anti-MP-22A9mut3 (antibody, mouse IgG1, kappa, V domains shown)
VH: B1 VH with L70I, I82L
VL: B1 VL

Assays:
[1] = target: 肺炎支原体天然抗原(购自Microbix) (Mycoplasma pneumoniae); experiment: indirect ELISA, antigen coated at 2 ug/ml, antibody 1.88 ng/ml
[2] = target: 肺炎支原体天然抗原(购自Microbix) (Mycoplasma pneumoniae); experiment: indirect ELISA, antigen coated at 2 ug/ml, antibody 7.5 ng/ml
[3] = target: 肺炎支原体天然抗原(购自Microbix) (Mycoplasma pneumoniae); experiment: indirect ELISA, antigen coated at 2 ug/ml, antibody 0.94 ng/ml
[4] = target: 肺炎支原体天然抗原(购自Microbix) (Mycoplasma pneumoniae); experiment: indirect ELISA, antigen coated at 2 ug/ml, antibody 15 ng/ml
[5] = target: 肺炎支原体天然抗原(购自Microbix) (Mycoplasma pneumoniae); experiment: indirect ELISA, antigen coated at 2 ug/ml, antibody 0 ng/ml (blank)
[6] = target: 肺炎支原体天然抗原(购自Microbix) (Mycoplasma pneumoniae); experiment: indirect ELISA, antigen coated at 2 ug/ml, antibody 3.75 ng/ml

| Molecule | OD450 (参考630nm) [1] | OD450 (参考630nm) [2] | OD450 (参考630nm) [3] | OD450 (参考630nm) [4] | OD450 (参考630nm) [5] | OD450 (参考630nm) [6] |
| --- | --- | --- | --- | --- | --- | --- |
| 对照 (antibody) | 0.212 OD | 0.629 OD | 0.118 OD | 1.32 OD | 0.015 OD | 0.403 OD |
| B1 | 0.391 OD | 1.39 OD | 0.205 OD | 1.92 OD | 0.013 OD | 0.619 OD |
| B2 | 0.534 OD | 1.6 OD | 0.386 OD | 2.23 OD | 0.021 OD | 0.899 OD |
| B3 | 0.339 OD | 1.42 OD | 0.207 OD | 2.01 OD | 0.011 OD | 0.627 OD |
| B4 | 0.401 OD | 1.47 OD | 0.207 OD | 1.98 OD | 0.012 OD | 0.758 OD |
| B5 | 0.536 OD | 1.68 OD | 0.315 OD | 2.03 OD | 0.011 OD | 0.814 OD |
| B6 | 0.512 OD | 1.67 OD | 0.359 OD | 2.16 OD | 0.016 OD | 0.906 OD |
